Results from patent US10293024 (dated 2019).

Tests used:
[1] = biological target: 6His-MAP kinase p38α (human); test: other, NMR titration 298K
[2] = biological target: T1, MAP kinase p38α (OH-p38α, non-phosphorylated) (human); test: SPR, inhibition in solution
[3] = biological target: T1, MAP kinase p38α (OH-p38α, …); test: other, biochemical kinase assay

T1 sequence (chain, as listed by the source): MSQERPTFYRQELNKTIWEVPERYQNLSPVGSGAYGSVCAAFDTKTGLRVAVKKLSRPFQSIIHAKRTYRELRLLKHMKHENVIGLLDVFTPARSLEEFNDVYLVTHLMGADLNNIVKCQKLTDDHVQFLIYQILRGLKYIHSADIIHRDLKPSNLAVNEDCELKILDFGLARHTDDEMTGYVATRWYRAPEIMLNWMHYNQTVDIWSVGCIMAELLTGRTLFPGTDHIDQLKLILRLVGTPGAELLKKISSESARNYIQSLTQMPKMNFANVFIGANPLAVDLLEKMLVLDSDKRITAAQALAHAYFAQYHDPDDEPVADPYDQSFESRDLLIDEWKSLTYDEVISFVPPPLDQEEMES
6His-MAP kinase p38α (human), sequence (chain, as listed by the source): as above

Kd [1] [nM]	Kd [2] [nM]	Ki [3] [nM]	Binder
< 1000	25	7	HKSRALLIFQKIMWLRRQ [BB2702]
~250000	–	–	RKPDLRVVIPPSS [MEF2A peptide]
